# T1: Terbium (Tb) labeled-SNAP tagged ROBO2 expressed on HEK293 cells (Homo sapiens (Human), UniProt Q9HCK4 22-1378, terbium label on the SNAP tag)
# T1 construct: also called Tb-labeled ROBO2 cells; ROBO2 expressing cells; not shown: SNAP tag
# T1 sequence: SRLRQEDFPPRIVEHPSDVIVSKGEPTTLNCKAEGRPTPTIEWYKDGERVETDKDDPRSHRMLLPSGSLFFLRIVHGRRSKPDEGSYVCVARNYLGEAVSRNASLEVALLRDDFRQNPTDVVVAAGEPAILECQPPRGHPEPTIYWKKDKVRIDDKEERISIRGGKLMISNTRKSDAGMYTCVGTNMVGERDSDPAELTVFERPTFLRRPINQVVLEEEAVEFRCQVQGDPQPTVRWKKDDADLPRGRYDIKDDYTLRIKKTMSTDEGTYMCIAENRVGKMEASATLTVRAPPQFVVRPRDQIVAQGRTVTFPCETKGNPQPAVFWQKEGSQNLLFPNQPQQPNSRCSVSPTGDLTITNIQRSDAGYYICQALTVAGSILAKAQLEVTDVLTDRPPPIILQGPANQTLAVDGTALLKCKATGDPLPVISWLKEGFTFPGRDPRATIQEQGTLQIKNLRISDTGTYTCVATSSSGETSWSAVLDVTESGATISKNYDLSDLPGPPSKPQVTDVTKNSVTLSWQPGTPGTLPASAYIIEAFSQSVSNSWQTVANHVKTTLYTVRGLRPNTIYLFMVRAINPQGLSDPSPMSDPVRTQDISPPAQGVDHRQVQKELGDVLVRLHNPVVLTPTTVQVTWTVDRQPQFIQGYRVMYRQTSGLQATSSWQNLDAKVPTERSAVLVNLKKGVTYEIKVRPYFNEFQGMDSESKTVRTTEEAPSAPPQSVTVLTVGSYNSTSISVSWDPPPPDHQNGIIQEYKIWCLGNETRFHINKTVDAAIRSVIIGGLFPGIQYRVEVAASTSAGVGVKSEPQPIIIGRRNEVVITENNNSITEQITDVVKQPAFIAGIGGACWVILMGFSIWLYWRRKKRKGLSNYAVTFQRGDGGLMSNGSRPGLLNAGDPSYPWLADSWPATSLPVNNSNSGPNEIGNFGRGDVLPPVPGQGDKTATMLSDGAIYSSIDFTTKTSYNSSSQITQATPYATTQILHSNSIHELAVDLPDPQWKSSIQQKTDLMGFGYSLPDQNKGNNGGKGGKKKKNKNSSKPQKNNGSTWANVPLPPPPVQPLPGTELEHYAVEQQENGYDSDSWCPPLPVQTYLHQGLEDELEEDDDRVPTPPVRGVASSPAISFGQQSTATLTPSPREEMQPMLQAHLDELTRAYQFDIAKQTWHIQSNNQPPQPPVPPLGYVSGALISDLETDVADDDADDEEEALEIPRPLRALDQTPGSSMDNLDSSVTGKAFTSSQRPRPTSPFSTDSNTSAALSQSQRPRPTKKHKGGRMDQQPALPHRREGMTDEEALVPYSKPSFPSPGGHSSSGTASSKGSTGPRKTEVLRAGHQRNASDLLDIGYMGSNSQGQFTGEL
# Biological target: T1, Terbium (Tb) labeled-SNAP tagged ROBO2 …
# Assay: HTRF competition on ROBO2 expressing cells; blocked ligand SLIT2-N; 11 points up to 10^2 nM, another dilution series than that of Table 2
binder,measurement,value
"Abcs35 (antibody, human IgG1, kappa, fully human IgG1; VH of Ab96 with VL of Ab123) heavy: EVQLVQSGAEVKKPGASVKVSCKASGYTFTGYYMHWVRQAPGQGLEWMGWINPKNGDTEFPQKFQGRVTMTRDTSITTAYMDLSRLRSDDTAVYYCARESGDDAFDIWGQGTMVTVSSASTKGPSVFPLAPSSKSTSGGTAALGCLVKDYFPEPVTVSWNSGALTSGVHTFPAVLQSSGLYSLSSVVTVPSSSLGTQTYICNVNHKPSNTKVDKKVEPKSCDKTHTCPPCPAPEAAGAPSVFLFPPKPKDTLMISRTPEVTCVVVDVSHEDPEVKFNWYVDGVEVHNAKTKPREEQYNSTYRVVSVLTVLHQDWLNGKEYKCKVSNKALPAPIEKTISKAKGQPREPQVYTLPPSREEMTKNQVSLTCLVKGFYPSDIAVEWESNGQPENNYKTTPPVLDSDGSFFLYSKLTVDKSRWQQGNVFSCSVMHEALHNHYTQKSLSLSPGK light: DIVMTQSPSSLSASVGDRVTITCRASQSISSYLNWYQQKPGKAPKLLIYAASSLQSGVPSRFSGSGSGTDFTLTISSLQPEDFATYYCQQSVGLFFGGGTKVEIKRTVAAPSVFIFPPSDEQLKSGTASVVCLLNNFYPREAKVQWKVDNALQSGNSQESVTEQDSKDSTYSLSSTLTLSKADYEKHKVYACEVTHQGLSSPVTKSFNRGEC",IC50 (read off the curve),~50 pM
